Test results reported in patent US7579150B1, “Mobile RNA acts as a signal to regulate plant growth and development” (Iowa State University Research Foundation, Inc., priority 2004, dated 2009).

Experiments:
[1] = tested on: StBEL-05; experiment: Yeast two-hybrid interaction of POTH1 deletion constructs with StBEL-05; assay type: cell-based, potato; details: yeast strain AH109
Source text: The Matchmaker two-hybrid system (Clontech, CA) was used for the yeast two-hybrid screen. Yeast transformation and plasmid rescue into DH5-a E. coli cells were according to the manufacturer's instructions. Full-length POTH1 was cloned into the pBridge (Clontech, CA) vector and used as bait to screen the potato (S. tuberosum ‘Desireé’) stolon cDNA library in pAD-GAL4-2.1 (Stratagene, Calif.). Positive interactions were confirmed by cotransforming yeast strain AH109 with each purified pAD plasmid and pBridge: POTH1 and plating on -leucine/-tryptophan (transformation control) and -leucine/-tryptophan/-histidine/-adenine (selection) nutrient medium. Induction of the AH109 reporter gene, lacZ, was measured with a yeast β-galactosidase assay kit (Pierce Chemicals). β-galactosidase activity (FIG. 9B) was determined from a known density of yeast cells and calculated as 1000×OD420/time of color reaction (minutes)×volume of yeast culture (ml)×OD600.
The StBEL-05 deletion constructs were amplified by PCR, then cloned into the vector, pGAD, in-frame with the GAL4 activation domain. POTH1 deletion constructs were amplified by PCR, and cloned into pBridge (Clontech) in-frame with the GAL4 binding domain. Sequencing of selected cDNAs and constructs was performed at the Iowa State University DNA Facility. […]

[2] = molecular target: T1, GAD:POTH1 fusion protein (full-length POTH1 fused to the GAL4 activation domain) (Solanum tuberosum, 35S-methionine labelled (in vitro translation)); experiment: immunoprecipitation of in vitro transcribed/translated proteins
T1 construct: In vitro transcribed/translated bait of the immunoprecipitation assay; no 35S label there; also called POTH1:GAD
T1 chain: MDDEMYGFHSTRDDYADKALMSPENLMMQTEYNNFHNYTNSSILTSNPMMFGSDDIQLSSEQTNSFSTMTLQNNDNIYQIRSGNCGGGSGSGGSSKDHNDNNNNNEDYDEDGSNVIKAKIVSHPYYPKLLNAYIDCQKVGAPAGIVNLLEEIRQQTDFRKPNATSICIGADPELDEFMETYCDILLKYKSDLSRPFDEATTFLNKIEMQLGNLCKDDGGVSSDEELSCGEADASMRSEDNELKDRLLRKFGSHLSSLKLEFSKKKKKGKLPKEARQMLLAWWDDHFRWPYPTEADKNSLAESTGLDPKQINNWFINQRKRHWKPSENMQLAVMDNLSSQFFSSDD
Description: (§1) In vitro binding experiments were performed as described by Ni et al., "PIF3, a Phytochrome-Interacting Factor Necessary for Normal Photoinduced Signal Transduction, is a Novel Basic Helix-Loop-Helix Protein," *Cell* 95:657-667 (1998), which is hereby incorporated by reference in its entirety. The full-length sequence for POTH1 was cloned into a pET17b/GAD fusion cassette and transcribed under the control of the T7 promoter. The BEL cDNAs were cloned into pGEM11Z vectors and were transcribed under the control of the T7 promoter. ^35S-methionine labeled bait and prey proteins were synthesized using the TnT in vitro transcription-translation kit (Promega) according to the manufacturer's protocols. Each 50 µl TnT reaction contained 2.0 µg of template plasmid DNA and […] (20 µCi) of labeled ^35S-methionine. The POTH1:GAD/BEL complex was immunoprecipitated with anti-GAD antibodies (Santa Cruz Biotechnology, CA). The proteins from the pellet (one-half the fraction) and for the prey (one-fourth of the reaction volume) were resolved on a 10% SDS-PAGE gel and visualized by autoradiography.

[3] = molecular target: T2, GAD protein alone (GAL4 activation domain) (UniProt P04386 768-881, limits assumed); experiment: immunoprecipitation of in vitro translated 35S-labelled proteins with anti-GAD antibodies
T2 construct: domain: GAD; Negative control of the immunoprecipitation assay
T2 sequence (looked up): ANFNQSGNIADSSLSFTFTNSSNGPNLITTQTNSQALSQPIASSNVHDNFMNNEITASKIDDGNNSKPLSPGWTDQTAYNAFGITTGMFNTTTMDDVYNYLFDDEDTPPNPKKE
Description: as §1

[4] = molecular target: T3, StBEL-05 in pBridge (GAL4 DNA-binding domain fusion) (Solanum tuberosum); experiment: yeast two-hybrid, reciprocal orientation
T3 construct: Range derived as for m2

[5] = molecular target: T4, pBHD9, first amino-terminal 114 aa of POTH1 in pBridge (GAL4 DNA-binding domain fusion) (Solanum tuberosum); experiment: in vitro binding protocol (immunoprecipitation of in vitro translated proteins)
T4 construct: also called pBDH9

B1: pBHD-9: POTH1 construct: first amino-terminal 114 aa, no KNOX domain sequence; transcriptional activator alone (protein)
chain: MKLLSSIEQACDICRLKKLKCSKEKPKCAKCLKNNWECRYSPKTKRSPLTRAHLTEVESRLERLEQLFLLIFPREDLDMILKMDSLQDIKALLTGLFVQDNVNKDAVTDRLASVETDMPLTLRQHRISATSSSEESSNKGQRQLTVSMDDEMYGFHSTRDDYADKALMSPENLMMQTEYNNFHNYTNSSILTSNPMMFGSDDIQLSSEQTNSFSTMTLQNNDNIYQIRSGNCGGGSGSGGSSKDHNDNNNNNEDYDEDGSN
[1]
  interaction with StBEL-05: Interaction with StBEL-05 was observed

B2: StBEL-13 protein synthesized in vitro from pGEM11Z (other)
chain: MVMGGGASSQQLGYAKNHTPNVAESMQLFLMNPQPRSPSPSPPNSTSSTLHMLLPNPSSTSTLQGFPNPAEGSFGQFITWGNGGASAATATHHLNAQNEIGGVNVVESQGLSLSLSSSLQHKAEELQMSGEAGGMMFFNQGGSSTSGQYRYKNLNMGGSGVSPNIHQVHVGYGSSLGVVNVLRNSKYAKAAQELLEEFCSVGRGKLKKTNNKAAANNPNTNPSGANNEASSKDVPTLSAADRIEHQRRKVKLLSMVDEVDRRYNHYCEQMQMVVNSFDLVMGFGTAVPYTALAQKAMSRHFRCLKDAIGAQLKQSCELLGEKDAGNSGLTKGETPRLKMLEQSLRQQRAFHQMGMMEQEAWRPQRGLPERSVNILRAWLFEHFLHPYPSDADKHLLARQTGLSRNQVSNWFINARVRLWKPMVEDMYQQEAKDEDGDGDEKSQSQNSGNNIIAQTPTPNSLTNTSSTNMTTTTAPTTTTALAAAETGTAATPITVTSSKRSQINATDSDPSLVAINSFSENQATFPTNIHDPDDCRRGNLSGDDGTTTHDHMGSTMIRFGTTAGDVSLTLGLRHAGNLPENTHFFG
modifications: 35S-methionine labelled (in vitro translation)
notes: BEL cDNA cloned into pGEM11Z under the T7 promoter; also called p11Z-13
[2]
  binding result: binds
[3]
  binding result: no binding

B3: pBHD9 construct (first 114 aa of POTH1) cloned into the pGAD vector (GAL4 activation domain fusion) (other, not shown: large carriers)
chain: MDDEMYGFHSTRDDYADKALMSPENLMMQTEYNNFHNYTNSSILTSNPMMFGSDDIQLSSEQTNSFSTMTLQNNDNIYQIRSGNCGGGSGSGGSSKDHNDNNNNNEDYDEDGSN
notes: also called pBDH9 construct in pGAD
[4]
  binding result: no binding

B4: StBEL-05 protein synthesized in vitro from pGEM11Z (other)
chain: MYYQGTSDNTNIQADHQQRHNHGNSNNNNIQTLYLMNPNNYMQGYTTSDTQQQQQLLFLNSSPAASNALCHANIQHAPLQQQHFVGVPLPAVSLHDQINHHGLLQRMWNNQDQSQQVIVPSSTGVSATSCGGITTDLASQLAFQRPIPTPQHRQQQQQQGGLSLSLSPQLQQQISFNNNISSSSPRTNNVTIRGTLDGSSSNMVLGSKYLKAAQELLDEVVNIVGKSIKGDDQKKDNSMNKESMPLASDVNTNSSGGGESSSRQKNEVAVELTTAQRQELQMKKAKLLAMLEEVEQRYRQYHHQMQIIVLSFEQVAGIGSAKSYTQLALHAISKQFRCLKDAIAEQVKATSKSLGEEEGLGGKIEGSRLKFVDHHLRQQRALQQIGMMQPNAWRPQRGLPERAVSVLRAWLFEHFLHPYPKDSDKIMLAKQTGLTRSQVSNWFINARVRLWKPMVEEMYLEEVKNQEQNSTNTSGDNKNKETNISAPNEEKHPIITSSLLQDGITTTQAEISTSTISTSPTAGASLHHAHNFSFLGSFNMDNTTTTVDHIENNAKKQRNDMHKFSPSSILSSVDMEAKARESSNKGFTNPLMAAYAMGDFGRFDPHDQQMTANFHGNNGVSLTLGLPPSENLAMPVSQQNYLSNDLGSRSEMGSHYNRMGYENIDFQSGNKRFPTQLLPDFVTGNLGT
modifications: 35S-methionine labelled (in vitro translation)
notes: BEL cDNA cloned into pGEM11Z under the T7 promoter; also called p11Z-5
[5]
  binding result: no binding
[3]
  binding result: no binding
